Target: Xis2d protein of CTnDOT (Bacteroides spp. (conjugative transposon CTnDOT))
Test: SEC

stoichiometry N: 2
Substance: Xis2d protein of CTnDOT (natural protein)

Source: publication PMC4600444
